Tested on: nuclear MEF2
Assay: MEF2 luciferase reporter assay
Type: cell-based
Details: co-transfected with MEF2 luciferase reporter
Text: Control indicates the group co-tranfected with control vector.
MEF2 luciferase reporter assay was done as described Wang et al., J Biol Chem, 2005, 280:16705-16713. Briefly, cells were transiently transfected with various constructs with MEF2 luciferase reporter plasmid (WT, reporter with wild type MEF2 DNA binding sites; mt, reporter with the MEF2 DNA binding sites mutated) using Lipofectimane 2000 (Invitrogen) following procedures provided by the manufacturer. A β-galactosidase expression plasmid was used to determine the efficiency in each transfection. The total amount of DNA for each transfection was kept constant by using control vectors. Cell lysates were analyzed for luciferase and β-galactosidase activity according to the manufacturer's instructions (Roche, cat. no. 11669893001).

nuclear MEF2 activity (MEF2 reporter): interferes with nuclear MEF2 function
B1: MEF2D1-131: dominant-negative form of MEF2D which interferes with nuclear MEF2 function (protein, UniProt Q63943 1-131, looked up, fragment)
chain: MGRKKIQIQRITDERNRQVTFTKRKFGLMKKAYELSVLCDCEIALIIFNHSNKLFQYASTDMDKVLLKYTEYNEPHESRTNADIIETLRKKGFNGCDSPEPDGEDSLEQSPLLEDKYRRASEELDGLFRRY
